# Tested on: ADGRF1
# Test: Cell-surface expression by flow cytometry, ADGRF1
# Format: cell-based, human
# Conditions: ADGRF1 constructs (pF1 Gi part of table), anti-Flag antibody, three independent measurements in duplicate
# Experimental: The wild-type ADGRD1 and ADGRF1 and mutants used in functional studies were constructed into a pTT5 vector with a Flag tag at the N terminus for receptor expression measurement. The basal activity of ADGRD1 and ADGRF1 in mediating Gs signalling was measured by a cAMP accumulation assay using a LANCE Ultra cAMP detection kit (PerkinElmer) following the manufacturer’s instruction. In brief, 2 ml HEK293F cells (Invitrogen; cells were routinely tested for mycoplasma contamination) at a density of 1.2 × 10^6 cells per ml were transiently transfected with 2,000 ng plasmid of the wild-type or mutant receptor and cultured at 37 °C for 48 h with 5% CO2 atmosphere in a shaker shaking at 220 rpm. After collection, the cell-surface expression of the receptors was measured by incubating 10 μl cells with 15 μl monoclonal anti-Flag M2-FITC antibody (Sigma; 1:120 diluted in TBS supplemented with 4% BSA and 20% viability staining solution 7-AAD (Invitrogen)) at 4 °C for 20 min. After incubation, 175 μl TBS buffer was added and the fluorescent signal was measured using a flow cytometry reader (Guava easyCyte HT, Millipore).
row,Molecule,Cell-surface expression (% of WT)
1,"V585^1.36bA (protein, UniProt Q5T601 20-910, looked up, variant V585A) Adhesion G-protein coupled …: GFLGKNDGIKTKKELIVNKKKHLGPVEEYQLLLQVTYRDSKEKRDLRNFLKLLKPPLLWSHGLIRIIRAKATTDCNSLNGVLQCTCEDSYTWFPPSCLDPQNCYLHTAGALPSCECHLNNLSQSVNFCERTKIWGTFKINERFTNDLLNSSSAIYSKYANGIEIQLKKAYERIQGFESVQVTQFRNGSIVAGYEVVGSSSASELLSAIEHVAEKAKTALHKLFPLEDGSFRVFGKAQCNDIVFGFGSKDDEYTLPCSSGYRGNITAKCESSGWQVIRETCVLSLLEELNKNFSMIVGNATEAAVSSFVQNLSVIIRQNPSTTVGNLASVVSILSNISSLSLASHFRVSNSTMEDVISIADNILNSASVTNWTVLLREEKYASSRLLETLENISTLVPPTALPLNFSRKFIDWKGIPVNKSQLKRGYSYQIKMCPQNTSIPIRGRVLIGSDQFQRSLPETIISMASLTLGNILPVSKNGNAQVNGPVISTVIQNYSINEVFLFFSKIESNLSQPHCVFWDFSHLQWNDAGCHLVNETQDIVTCQCTHLTSFSILMSPFVPSTIFPVAKWITYVGLGISIGSLILCLIIEALFWKQIKKSQTSHTRRICMVNIALSLLIADVWFIVGATVDTTVNPSGVCTAAVFFTHFFYLSLFFWMLMLGILLAYRIILVFHHMAQHLMMAVGFCLGYGCPLIISVITIAVTQPSNTYKRKDVCWLNWSNGSKPLLAFVVPALAIVAVNFVVVLLVLTKLWRPTVGERLSRDDKATIIRVGKSLLILTPLLGLTWGFGIGTIVDSQNLAWHVIFALLNAFQGFFILCFGILLDSKLRQLLFNKLSALSSWKQTEKQNSSDLSAKPKFSKPFNPLQNKGHYAFSHTGDSSDNIMLTQFVSNE",91 ± 21 % of WT
2,"T589^1.40bA (protein, UniProt Q5T601 20-910, looked up, variant T589A) Adhesion G-protein coupled …: GFLGKNDGIKTKKELIVNKKKHLGPVEEYQLLLQVTYRDSKEKRDLRNFLKLLKPPLLWSHGLIRIIRAKATTDCNSLNGVLQCTCEDSYTWFPPSCLDPQNCYLHTAGALPSCECHLNNLSQSVNFCERTKIWGTFKINERFTNDLLNSSSAIYSKYANGIEIQLKKAYERIQGFESVQVTQFRNGSIVAGYEVVGSSSASELLSAIEHVAEKAKTALHKLFPLEDGSFRVFGKAQCNDIVFGFGSKDDEYTLPCSSGYRGNITAKCESSGWQVIRETCVLSLLEELNKNFSMIVGNATEAAVSSFVQNLSVIIRQNPSTTVGNLASVVSILSNISSLSLASHFRVSNSTMEDVISIADNILNSASVTNWTVLLREEKYASSRLLETLENISTLVPPTALPLNFSRKFIDWKGIPVNKSQLKRGYSYQIKMCPQNTSIPIRGRVLIGSDQFQRSLPETIISMASLTLGNILPVSKNGNAQVNGPVISTVIQNYSINEVFLFFSKIESNLSQPHCVFWDFSHLQWNDAGCHLVNETQDIVTCQCTHLTSFSILMSPFVPSTIFPVVKWIAYVGLGISIGSLILCLIIEALFWKQIKKSQTSHTRRICMVNIALSLLIADVWFIVGATVDTTVNPSGVCTAAVFFTHFFYLSLFFWMLMLGILLAYRIILVFHHMAQHLMMAVGFCLGYGCPLIISVITIAVTQPSNTYKRKDVCWLNWSNGSKPLLAFVVPALAIVAVNFVVVLLVLTKLWRPTVGERLSRDDKATIIRVGKSLLILTPLLGLTWGFGIGTIVDSQNLAWHVIFALLNAFQGFFILCFGILLDSKLRQLLFNKLSALSSWKQTEKQNSSDLSAKPKFSKPFNPLQNKGHYAFSHTGDSSDNIMLTQFVSNE",83 ± 3 % of WT
3,"F641^2.64bA (protein, UniProt Q5T601 20-910, looked up, variant F641A) Adhesion G-protein coupled …: GFLGKNDGIKTKKELIVNKKKHLGPVEEYQLLLQVTYRDSKEKRDLRNFLKLLKPPLLWSHGLIRIIRAKATTDCNSLNGVLQCTCEDSYTWFPPSCLDPQNCYLHTAGALPSCECHLNNLSQSVNFCERTKIWGTFKINERFTNDLLNSSSAIYSKYANGIEIQLKKAYERIQGFESVQVTQFRNGSIVAGYEVVGSSSASELLSAIEHVAEKAKTALHKLFPLEDGSFRVFGKAQCNDIVFGFGSKDDEYTLPCSSGYRGNITAKCESSGWQVIRETCVLSLLEELNKNFSMIVGNATEAAVSSFVQNLSVIIRQNPSTTVGNLASVVSILSNISSLSLASHFRVSNSTMEDVISIADNILNSASVTNWTVLLREEKYASSRLLETLENISTLVPPTALPLNFSRKFIDWKGIPVNKSQLKRGYSYQIKMCPQNTSIPIRGRVLIGSDQFQRSLPETIISMASLTLGNILPVSKNGNAQVNGPVISTVIQNYSINEVFLFFSKIESNLSQPHCVFWDFSHLQWNDAGCHLVNETQDIVTCQCTHLTSFSILMSPFVPSTIFPVVKWITYVGLGISIGSLILCLIIEALFWKQIKKSQTSHTRRICMVNIALSLLIADVWAIVGATVDTTVNPSGVCTAAVFFTHFFYLSLFFWMLMLGILLAYRIILVFHHMAQHLMMAVGFCLGYGCPLIISVITIAVTQPSNTYKRKDVCWLNWSNGSKPLLAFVVPALAIVAVNFVVVLLVLTKLWRPTVGERLSRDDKATIIRVGKSLLILTPLLGLTWGFGIGTIVDSQNLAWHVIFALLNAFQGFFILCFGILLDSKLRQLLFNKLSALSSWKQTEKQNSSDLSAKPKFSKPFNPLQNKGHYAFSHTGDSSDNIMLTQFVSNE",82 ± 19 % of WT
4,"L593^1.47bA (protein, UniProt Q5T601 20-910, looked up, variant L593A) Adhesion G-protein coupled …: GFLGKNDGIKTKKELIVNKKKHLGPVEEYQLLLQVTYRDSKEKRDLRNFLKLLKPPLLWSHGLIRIIRAKATTDCNSLNGVLQCTCEDSYTWFPPSCLDPQNCYLHTAGALPSCECHLNNLSQSVNFCERTKIWGTFKINERFTNDLLNSSSAIYSKYANGIEIQLKKAYERIQGFESVQVTQFRNGSIVAGYEVVGSSSASELLSAIEHVAEKAKTALHKLFPLEDGSFRVFGKAQCNDIVFGFGSKDDEYTLPCSSGYRGNITAKCESSGWQVIRETCVLSLLEELNKNFSMIVGNATEAAVSSFVQNLSVIIRQNPSTTVGNLASVVSILSNISSLSLASHFRVSNSTMEDVISIADNILNSASVTNWTVLLREEKYASSRLLETLENISTLVPPTALPLNFSRKFIDWKGIPVNKSQLKRGYSYQIKMCPQNTSIPIRGRVLIGSDQFQRSLPETIISMASLTLGNILPVSKNGNAQVNGPVISTVIQNYSINEVFLFFSKIESNLSQPHCVFWDFSHLQWNDAGCHLVNETQDIVTCQCTHLTSFSILMSPFVPSTIFPVVKWITYVGAGISIGSLILCLIIEALFWKQIKKSQTSHTRRICMVNIALSLLIADVWFIVGATVDTTVNPSGVCTAAVFFTHFFYLSLFFWMLMLGILLAYRIILVFHHMAQHLMMAVGFCLGYGCPLIISVITIAVTQPSNTYKRKDVCWLNWSNGSKPLLAFVVPALAIVAVNFVVVLLVLTKLWRPTVGERLSRDDKATIIRVGKSLLILTPLLGLTWGFGIGTIVDSQNLAWHVIFALLNAFQGFFILCFGILLDSKLRQLLFNKLSALSSWKQTEKQNSSDLSAKPKFSKPFNPLQNKGHYAFSHTGDSSDNIMLTQFVSNE",90 ± 6 % of WT

# — paper PMC9046087, “Structural basis of tethered agonism of the adhesion GPCRs ADGRD1 and ADGRF1” (Nature, 2022)
